Antigen coupling efficiency (percentage of binding sites per cVLP conjugated to an antigen) data for three substances are collected here from paper PMC9864010.

Assay [1] deals with AP205 cVLP displaying SpyCatcher (SpyC-cVLP) (Acinetobacter phage AP205). Put plainly: covalent SpyTag/SpyCatcher coupling shown by reduced SDS-PAGE with densitometry; FL PCSK9-SpyT in 100 mM HEPES, 500 mM NaCl, pH 7 mixed 1:1.2 (cVLP subunit per antigen) with SpyC-cVLP, HEPES to 250 mM and L-Arginine to 500 mM, overnight at 4 °C; coupling band on reduced SDS-PAGE; coupling efficiency by densitometry.

The target of assay [2] is AP205 cVLP displaying SpyTag (SpyT-cVLP) (Acinetobacter phage AP205). Kind of assay: covalent SpyTag/SpyCatcher coupling shown by reduced SDS-PAGE with densitometry; SpyT-cVLP and SpyC-PCSK9 antigen mixed in a 1:2 molar ratio in PBS, pH 7.4, overnight at 4 °C; coupling band on reduced SDS-PAGE; coupling efficiency = coupled cVLP subunits/(coupled + uncoupled cVLP subunits) by densitometry.

Regarding “FL PCSK9-SpyT (muPCSK9(35–694) R221S-SpyT)”, the antigen coupling efficiency (percentage of binding sites per cVLP conjugated to an antigen) in assay [1] was 40%.
Take “SpyC-PCSK9(156–227) (from UniProt Q80W65 156-227)”: in assay [2], the antigen coupling efficiency (percentage of binding sites per cVLP conjugated to an antigen) is 60%.
Take “SpyC-PCSK9(210–226) (from UniProt Q80W65 210-226)”: the antigen coupling efficiency (percentage of binding sites per cVLP conjugated to an antigen) in assay [2] came out at 80%.
